B1: Act-CRMP5 (complete human CRMP 5 protein fused to NLS-B42-HA, prey) (other, UniProt Q9BPU6 1-564, looked up, not shown: large carriers)
chain: MLANSASVRILIKGGKVVNDDCTHEADVYIENGIIQQVGRELMIPGGAKVIDATGKLVIPGGIDTSTHFHQTFMNATCVDDFYHGTKAALVGGTTMIIGHVLPDKETSLVDAYEKCRGLADPKVCCDYALHVGITWWAPKVKAEMETLVREKGVNSFQMFMTYKDLYMLRDSELYQVLHACKDIGAIARVHAENGELVAEGAKEALDLGITGPEGIEISRPEELEAEATHRVITIANRTHCPIYLVNVSSISAGDVIAAAKMQGKVVLAETTTAHATLTGLHYYHQDWSHAAAYVTVPPLRLDTNTSTYLMSLLANDTLNIVASDHRPFTTKQKAMGKEDFTKIPHGVSGVQDRMSVIWERGVVGGKMDENRFVAVTSSNAAKLLNLYPRKGRIIPGADADVVVWDPEATKTISASTQVQGGDFNLYENMRCHGVPLVTISRGRVVYENGVFMCAEGTGKFCPLRSFPDTVYKKLVQREKTLKVRGVDRTPYLGDVAVVVHPGKKEMGTPLADTPTRPVTRHGGMRDLHESSFSLSGSQIDDHVPKRASARILAPPGGRSSGIW
B2: LexA (bait vector without insert) (other)
chain: MKALTARQQEVFDLIRDHISQTGMPPTRAEIAQRLGFRSPNAAEEHLKALARKGVIEIVSGASRGIRLLQEEEEGLPLVGRVAAGEPLLAQQHIEGHYQVDPSLFKPNADFLLRVSGMSMKDIGIMDGDLLAVHKTQDVRNGQVVVARIDDEVTVKRLKKQGNKVELLPENSEFKPIVVDLRQQSFTIEGLAVGVIRNGDWL
notes: range 1-202

Assays:
[1] = target: T1, LexA-CRMP5 (complete human CRMP 5 protein fused to LexA, bait) (human, UniProt P0A7C2 1-202; Q9BPU6 1-564); test: yeast two-hybrid by conjugation, LexA bait and Act prey, lacZ reporter (X-gal)
T1 sequence (looked up): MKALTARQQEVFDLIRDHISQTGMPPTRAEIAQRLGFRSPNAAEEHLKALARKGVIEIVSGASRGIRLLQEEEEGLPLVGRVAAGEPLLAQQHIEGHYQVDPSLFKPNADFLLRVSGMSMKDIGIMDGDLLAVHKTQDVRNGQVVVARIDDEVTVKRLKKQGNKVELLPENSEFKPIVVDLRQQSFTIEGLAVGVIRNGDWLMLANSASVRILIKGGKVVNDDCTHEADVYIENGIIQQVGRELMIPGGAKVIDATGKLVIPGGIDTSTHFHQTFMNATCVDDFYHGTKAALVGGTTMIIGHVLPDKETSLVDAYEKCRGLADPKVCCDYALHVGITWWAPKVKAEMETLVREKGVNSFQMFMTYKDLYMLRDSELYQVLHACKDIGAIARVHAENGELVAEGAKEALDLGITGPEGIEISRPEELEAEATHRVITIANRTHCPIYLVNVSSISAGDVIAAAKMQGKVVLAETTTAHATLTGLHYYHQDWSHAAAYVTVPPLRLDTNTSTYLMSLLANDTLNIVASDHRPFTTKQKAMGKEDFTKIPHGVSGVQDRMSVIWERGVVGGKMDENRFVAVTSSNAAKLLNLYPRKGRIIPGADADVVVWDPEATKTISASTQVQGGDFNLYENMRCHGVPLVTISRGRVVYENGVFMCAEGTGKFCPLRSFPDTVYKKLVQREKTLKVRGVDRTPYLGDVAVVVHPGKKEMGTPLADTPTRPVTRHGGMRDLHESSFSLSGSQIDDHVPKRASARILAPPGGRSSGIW

[2] = target: B1; test: yeast two-hybrid by conjugation, lacZ reporter (X-gal)

Binder | binding result [1] | binding result [2]
B1 | binds | –
B2 | – | no binding
